The values that follow come from PMC7895813 (Journal of Molecular Biology, 2021).

Residue numbers refer to the chain shown, from its start. In names and notes the source's numbering stands.

Series [1] concerns the molecule itself. The experiment in a line: SEC; cleaved MDM2 variants after removal of the GST-tag on HiLoad 16/600 Superdex 75; oligomeric state by comparison with molecular weight markers. Background: In gel filtration, larger molecules generally elute earlier.
Series [2] deals with the molecule itself. The experiment in a line: SEC; GST-MDM2 variants (3 mg/mL) incubated with 1:10 TEV for 16-20 h at 4 °C; soluble fraction of the cleaved products on Superdex 75 Increase 10/300; comparison with molecular weight markers and SDS-PAGE.
Series [3] addresses T1, UbcH5B–Ub, isopeptide-linked E2–Ub conjugate (UbcH5B S22R C85K) (human | , UniProt P62837 1-147; P0CG48 1-76, S22R | C85K, lysine 85 (C85K) isopeptide-linked to the C-terminus of Ub | C-terminus isopeptide-linked to lysine 85 of UbcH5B).
T1 construct: ubiquitin (Ub), the cut product of the ubiquitin precursor; Ub was cloned with an N-terminal 6xHis-tag, a TEV cleavage site and a GGS linker; also called E2(UbcH5B)–Ub; source: E. coli BL21(DE3) GOLD, purified; conjugate generated as described previously
Briefly: SPR; GST-tagged MDM2 variants captured on a CM-5 chip with coupled anti-GST antibody; serial dilution of UbcH5B–Ub as analyte; Biacore T200, 25 °C; 25 mM Tris-HCl pH 7.6, 150 mM NaCl, 1 mM DTT, 0.005% Tween-20; two technical replicates. The conditions noted are these: both partners purified. For orientation: In SPR one partner is held on a chip, and binding of the other changes the refractive index at the surface.

B1: Danio rerio MDM2 407-C (MDM2^z), GST-tag removed (domain or fragment, Danio rerio (zebrafish), UniProt O42354 377-445, looked up)
chain: FNSLEACLPATCLEPCVICQSRPKNGCIVHGRTGHLMACYTCAKKLKNRNKLCPVCREPIQSVVLTYMS
notes: MDM2, Danio rerio (zebrafish), residues 407 to the C-terminus; 407-417 correspond to 423-433 of human MDM2, which implies a numbered chain of about 475 residues; also called zebrafish MDM2 407-C; source: E. coli BL21(DE3) GOLD, GST-tag released with TEV, Superdex 75 gel filtration; not shown: GST, N-terminal, cleaved
As usually defined, the stoichiometry N is a count of units in the complex or per binding partner. On to B1, for which the “stoichiometry N” value in series [1] is 2.

B2: MDM2^h A434S (human MDM2 419-C A434S), GST-tag removed (domain or fragment, UniProt Q00987 419-491, looked up)
chain: TQDKEESVESSLPLNSIEPCVICQGRPKNGCIVHGKTGHLMACFTCAKKLKKRNKPCPVCRQPIQMIVLTYFP
notes: MDM2, human, residues 419 to the C-terminus, with A434S; source: E. coli BL21(DE3) GOLD, GST-MDM2 treated with TEV, soluble cleaved products on analytical SEC; not shown: GST, N-terminal, cleaved
Turning to B2, the binding result in series [2] is reported as “binds”.

B3: human MDM2 419-C G443T (MDM2^hGT), GST-tag removed (domain or fragment, UniProt Q00987 419-491, looked up)
chain: B2 chain with S16A, G25T
notes: MDM2, human, residues 419 to the C-terminus, with G443T; also called MDM2^h G443T; MDM2-G443T; source: E. coli BL21(DE3) GOLD, GST-tag released with TEV, Superdex 75 gel filtration; not shown: GST, N-terminal, cleaved
For the molecule B3, the “stoichiometry N” value in series [2] was determined as 2.

B4: MDM2^h I435V (human MDM2 419-C I435V), GST-tag removed (domain or fragment, UniProt Q00987 419-491, looked up)
chain: B2 chain with S16A, I17V
notes: MDM2, human, residues 419 to the C-terminus, with I435V; source: E. coli BL21(DE3) GOLD, GST-MDM2 treated with TEV, soluble cleaved products on analytical SEC; not shown: GST, N-terminal, cleaved
Regarding B4, in series [2], the binding result is given as “binds”.

B5: MDM2^h P491S (human MDM2 419-C P491S), GST-tag removed (domain or fragment, UniProt Q00987 419-491, looked up)
chain: B2 chain with S16A, P73S
notes: MDM2, human, residues 419 to the C-terminus, with P491S; source: E. coli BL21(DE3) GOLD, GST-MDM2 treated with TEV, soluble cleaved products on analytical SEC; not shown: GST, N-terminal, cleaved
Consider B5, for which the binding result in series [2] is recorded as “binds”.

B6: GST-tagged human MDM2 419-C (MDM2^h) (domain or fragment, UniProt Q00987 419-491, looked up)
chain: B2 chain with S16A
notes: MDM2, human, residues 419 to the C-terminus (RING domain with the preceding region); pGEX-4T1, N-terminal GST-tag followed by a TEV cleavage site; GST kept for SPR and ubiquitination assays; also called GST-MDM2^h; wild-type MDM2^h; source: E. coli BL21(DE3) GOLD, purified (glutathione Sepharose, gel filtration); not shown: GST, N-terminal, kept
Broadly, the Kd is a measure of binding affinity in units of concentration. B6: the affinity in series [3], expressed as Kd, was 13.5 ± 0.6 µM.

B7: GST-tagged human MDM2 419-C G443T (MDM2^hGT) (domain or fragment, UniProt Q00987 419-491, looked up)
chain: B2 chain with S16A, G25T
notes: MDM2, human, residues 419 to the C-terminus, with G443T; pGEX-4T1, N-terminal GST-tag followed by a TEV cleavage site; GST kept for SPR and ubiquitination assays; also called GST-MDM2^hGT; MDM2^h G443T; source: E. coli BL21(DE3) GOLD, purified (glutathione Sepharose, gel filtration); not shown: GST, N-terminal, kept
In series [3], B7 came in with a Kd of 16.3 ± 1.9 µM.
